From article PMC3167601

Columns and labels:
Assay in all cases: fluorescence anisotropy
IRF-7 DBD wild type = target: T1, IRF-7 DBD wild type (mouse, UniProt P70434 1-134)
T1 sequence: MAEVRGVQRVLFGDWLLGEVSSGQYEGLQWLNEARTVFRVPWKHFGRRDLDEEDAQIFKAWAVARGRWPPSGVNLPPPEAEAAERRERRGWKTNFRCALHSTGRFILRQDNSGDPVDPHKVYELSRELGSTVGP

IRF-7 DBD H44A = target: T2, IRF-7 DBD H44A (mouse, UniProt P70434 1-134, H44A)
T2 sequence: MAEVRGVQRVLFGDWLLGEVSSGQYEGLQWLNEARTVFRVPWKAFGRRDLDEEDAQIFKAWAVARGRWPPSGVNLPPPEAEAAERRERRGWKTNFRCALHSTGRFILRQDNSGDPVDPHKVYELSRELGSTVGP

IRF-3 DBD wild type = target: T3, IRF-3 DBD wild type (human, UniProt Q14653 1-113)
T3 sequence: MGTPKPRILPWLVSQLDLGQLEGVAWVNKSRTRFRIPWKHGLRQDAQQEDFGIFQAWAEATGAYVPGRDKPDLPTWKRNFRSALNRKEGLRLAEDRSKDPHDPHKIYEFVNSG

IRF-3 DBD H40A = target: T4, IRF-3 DBD H40A (human, UniProt Q14653 1-113, H40A)
T4 sequence: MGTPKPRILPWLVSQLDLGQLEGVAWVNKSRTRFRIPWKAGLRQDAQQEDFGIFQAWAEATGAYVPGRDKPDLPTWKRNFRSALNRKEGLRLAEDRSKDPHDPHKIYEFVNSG

B1: PRDI 15-mer duplex (dsDNA)
DNA 1: GAGAAGTGAAAGTGG
DNA 2: CCACTTTCACTTCTC
Kd (IRF-7 DBD wild type): 630 nM
Kd (IRF-7 DBD H44A): 532 nM
Kd (IRF-3 DBD wild type): 486 nM
Kd (IRF-3 DBD H40A): 1710 nM
